Measured values from patent publication US20160272683A1 (Novo Nordisk, published 2016).
Numbered stars: 1 amine (or outer) side, 2 acyl side, 3 side chain; on linkers, the order of the positions; unused ones are H or OH. Ends that are not written are not given here. * marks the point of attachment. C20 diacid = O=C(O)CCCCCCCCCCCCCCCCCCC(=O)*; C18 diacid = O=C(O)CCCCCCCCCCCCCCCCC(=O)*; γGlu = O=C(O)[C@H](CCC(=O)[*:2])N[*:1]; C14 diacid = O=C(O)CCCCCCCCCCCCC(=O)*

T1: human calcitonin receptor (human, UniProt P30988 25-474)
T1 sequence (looked up): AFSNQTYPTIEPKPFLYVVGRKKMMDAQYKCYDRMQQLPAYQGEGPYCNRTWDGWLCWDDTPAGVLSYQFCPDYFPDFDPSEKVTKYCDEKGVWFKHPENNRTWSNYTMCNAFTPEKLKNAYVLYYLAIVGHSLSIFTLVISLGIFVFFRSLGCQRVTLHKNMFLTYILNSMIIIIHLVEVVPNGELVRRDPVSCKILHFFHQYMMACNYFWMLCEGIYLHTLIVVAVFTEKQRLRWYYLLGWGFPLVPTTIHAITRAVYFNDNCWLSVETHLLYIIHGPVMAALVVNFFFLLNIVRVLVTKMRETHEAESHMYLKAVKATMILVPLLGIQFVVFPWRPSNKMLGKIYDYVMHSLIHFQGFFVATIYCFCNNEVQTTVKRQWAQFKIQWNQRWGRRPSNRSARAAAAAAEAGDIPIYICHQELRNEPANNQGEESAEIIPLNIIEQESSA

T2: human amylin 3(a) receptor (human calcitonin receptor co-expressed with RAMP-3) (human, UniProt P30988 25-474; O60896 24-148, limits assumed)
T2 sequence (looked up) 1: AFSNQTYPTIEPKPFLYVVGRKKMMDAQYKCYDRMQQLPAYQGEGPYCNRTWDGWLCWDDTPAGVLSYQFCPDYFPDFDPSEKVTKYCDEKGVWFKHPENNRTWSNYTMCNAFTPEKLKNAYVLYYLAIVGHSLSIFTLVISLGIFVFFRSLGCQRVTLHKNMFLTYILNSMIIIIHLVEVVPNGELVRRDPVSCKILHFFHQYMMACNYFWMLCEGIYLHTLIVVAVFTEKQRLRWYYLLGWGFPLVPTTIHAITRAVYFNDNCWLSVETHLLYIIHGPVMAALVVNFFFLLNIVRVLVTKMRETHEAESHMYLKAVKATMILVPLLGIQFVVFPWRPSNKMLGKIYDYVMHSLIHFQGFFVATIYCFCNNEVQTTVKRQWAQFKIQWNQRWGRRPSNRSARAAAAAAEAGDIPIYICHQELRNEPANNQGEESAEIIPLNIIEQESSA
T2 sequence (looked up) 2: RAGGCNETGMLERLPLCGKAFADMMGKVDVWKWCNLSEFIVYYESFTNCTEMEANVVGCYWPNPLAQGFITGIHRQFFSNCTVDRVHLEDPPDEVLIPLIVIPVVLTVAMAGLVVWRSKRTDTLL


Experiments:
[1] = target: T1, human calcitonin receptor; assay: cell-based or functional assay
[2] = target: T2, human amylin 3(a) receptor (human …); assay: cell-based or functional assay

Binder | hCTR funct. EC50 (pM) [1] [pM] | hAmylin-R funct. EC50 (pM) [2] [pM]
EASELSTAALGRLSAELHELATLPRTETGPESP-NH2 [mimylin] | 1 | 3
{C14 diacid-γGlu}-ASELSTAALGRLSAELHELATLPRTETGPESP-NH2 [[N-terminal(C14 diacid-gGlu), des1]mimylin] | 3 | 8
{C18 diacid}-EASELSTAALGRLSAELHELATLPRTETGSGSP-NH2 [[N-terminal(C18 diacid), 30S, 31G]mimylin] | 6 | 9
{C20 diacid}-EASELSTAALGRLSAELHELATLPRTETGSGSP-NH2 [[N-terminal(C20 diacid), 30S, 31G]mimylin] | 9 | 11
{C18 diacid}-EASELHTAALGRLSAELHELATLPRTETGPESP-NH2 (SMILES CC(C)C[C@H](NC(=O)[C@H](C)NC(=O)[C@H](C)NC(=O)[C@@H](NC(=O)[C@H](Cc1c[nH]cn1)NC(=O)[C@H](CC(C)C)NC(=O)[C@H](CCC(=O)O)NC(=O)[C@H](CO)NC(=O)[C@H](C)NC(=O)[C@H](CCC(=O)O)NC(=O)CCCCCCCCCCCCCCCCC(=O)O)[C@@H](C)O)C(=O)NCC(=O)N[C@@H](CCCNC(=N)N)C(=O)N[C@@H](CC(C)C)C(=O)N[C@@H](CO)C(=O)N[C@@H](C)C(=O)N[C@@H](CCC(=O)O)C(=O)N[C@@H](CC(C)C)C(=O)N[C@@H](Cc1c[nH]cn1)C(=O)N[C@@H](CCC(=O)O)C(=O)N[C@@H](CC(C)C)C(=O)N[C@@H](C)C(=O)N[C@H](C(=O)N[C@@H](CC(C)C)C(=O)N1CCC[C@H]1C(=O)N[C@@H](CCCNC(=N)N)C(=O)N[C@H](C(=O)N[C@@H](CCC(=O)O)C(=O)N[C@H](C(=O)NCC(=O)N1CCC[C@H]1C(=O)N[C@@H](CCC(=O)O)C(=O)N[C@@H](CO)C(=O)N1CCC[C@H]1C(N)=O)[C@@H](C)O)[C@@H](C)O)[C@@H](C)O) [[N-terminal(C18 diacid), 6H]mimylin] | 9 | 15
{C18 diacid}-EASELSTAALGRLSAELHELATYPRTETGPESP-NH2 (SMILES CC(C)C[C@H](NC(=O)[C@H](C)NC(=O)[C@H](C)NC(=O)[C@@H](NC(=O)[C@H](CO)NC(=O)[C@H](CC(C)C)NC(=O)[C@H](CCC(=O)O)NC(=O)[C@H](CO)NC(=O)[C@H](C)NC(=O)[C@H](CCC(=O)O)NC(=O)CCCCCCCCCCCCCCCCC(=O)O)[C@@H](C)O)C(=O)NCC(=O)N[C@@H](CCCNC(=N)N)C(=O)N[C@@H](CC(C)C)C(=O)N[C@@H](CO)C(=O)N[C@@H](C)C(=O)N[C@@H](CCC(=O)O)C(=O)N[C@@H](CC(C)C)C(=O)N[C@@H](Cc1c[nH]cn1)C(=O)N[C@@H](CCC(=O)O)C(=O)N[C@@H](CC(C)C)C(=O)N[C@@H](C)C(=O)N[C@H](C(=O)N[C@@H](Cc1ccc(O)cc1)C(=O)N1CCC[C@H]1C(=O)N[C@@H](CCCNC(=N)N)C(=O)N[C@H](C(=O)N[C@@H](CCC(=O)O)C(=O)N[C@H](C(=O)NCC(=O)N1CCC[C@H]1C(=O)N[C@@H](CCC(=O)O)C(=O)N[C@@H](CO)C(=O)N1CCC[C@H]1C(N)=O)[C@@H](C)O)[C@@H](C)O)[C@@H](C)O) [[N-terminal(C18 diacid), 23Y]mimylin] | 7 | 11
{C18 diacid}-EASELSTLALGRLSAELHELATLPRTETGPESP-NH2 (SMILES CC(C)C[C@H](NC(=O)[C@H](C)NC(=O)[C@H](CC(C)C)NC(=O)[C@@H](NC(=O)[C@H](CO)NC(=O)[C@H](CC(C)C)NC(=O)[C@H](CCC(=O)O)NC(=O)[C@H](CO)NC(=O)[C@H](C)NC(=O)[C@H](CCC(=O)O)NC(=O)CCCCCCCCCCCCCCCCC(=O)O)[C@@H](C)O)C(=O)NCC(=O)N[C@@H](CCCNC(=N)N)C(=O)N[C@@H](CC(C)C)C(=O)N[C@@H](CO)C(=O)N[C@@H](C)C(=O)N[C@@H](CCC(=O)O)C(=O)N[C@@H](CC(C)C)C(=O)N[C@@H](Cc1c[nH]cn1)C(=O)N[C@@H](CCC(=O)O)C(=O)N[C@@H](CC(C)C)C(=O)N[C@@H](C)C(=O)N[C@H](C(=O)N[C@@H](CC(C)C)C(=O)N1CCC[C@H]1C(=O)N[C@@H](CCCNC(=N)N)C(=O)N[C@H](C(=O)N[C@@H](CCC(=O)O)C(=O)N[C@H](C(=O)NCC(=O)N1CCC[C@H]1C(=O)N[C@@H](CCC(=O)O)C(=O)N[C@@H](CO)C(=O)N1CCC[C@H]1C(N)=O)[C@@H](C)O)[C@@H](C)O)[C@@H](C)O) [[N-terminal(C18 diacid), 8L]mimylin] | 7 | 9
{C18 diacid-γGlu}-ASELSTAALGRLSAELHELATLPRTETGSESP-NH2 (SMILES CC(C)C[C@H](NC(=O)[C@H](C)NC(=O)[C@H](C)NC(=O)[C@@H](NC(=O)[C@H](CO)NC(=O)[C@H](CC(C)C)NC(=O)[C@H](CCC(=O)O)NC(=O)[C@H](CO)NC(=O)[C@H](C)NC(=O)CC[C@H](NC(=O)CCCCCCCCCCCCCCCCC(=O)O)C(=O)O)[C@@H](C)O)C(=O)NCC(=O)N[C@@H](CCCNC(=N)N)C(=O)N[C@@H](CC(C)C)C(=O)N[C@@H](CO)C(=O)N[C@@H](C)C(=O)N[C@@H](CCC(=O)O)C(=O)N[C@@H](CC(C)C)C(=O)N[C@@H](Cc1c[nH]cn1)C(=O)N[C@@H](CCC(=O)O)C(=O)N[C@@H](CC(C)C)C(=O)N[C@@H](C)C(=O)N[C@H](C(=O)N[C@@H](CC(C)C)C(=O)N1CCC[C@H]1C(=O)N[C@@H](CCCNC(=N)N)C(=O)N[C@H](C(=O)N[C@@H](CCC(=O)O)C(=O)N[C@H](C(=O)NCC(=O)N[C@@H](CO)C(=O)N[C@@H](CCC(=O)O)C(=O)N[C@@H](CO)C(=O)N1CCC[C@H]1C(N)=O)[C@@H](C)O)[C@@H](C)O)[C@@H](C)O) [[N-terminal(C18 diacid-gGlu), des1, 30S]mimylin] | 4 | 9
{C18 diacid}-EASEHSTAALGRLSAELHELATLPRTETGPESP-NH2 (SMILES CC(C)C[C@H](NC(=O)[C@H](C)NC(=O)[C@H](C)NC(=O)[C@@H](NC(=O)[C@H](CO)NC(=O)[C@H](Cc1c[nH]cn1)NC(=O)[C@H](CCC(=O)O)NC(=O)[C@H](CO)NC(=O)[C@H](C)NC(=O)[C@H](CCC(=O)O)NC(=O)CCCCCCCCCCCCCCCCC(=O)O)[C@@H](C)O)C(=O)NCC(=O)N[C@@H](CCCNC(=N)N)C(=O)N[C@@H](CC(C)C)C(=O)N[C@@H](CO)C(=O)N[C@@H](C)C(=O)N[C@@H](CCC(=O)O)C(=O)N[C@@H](CC(C)C)C(=O)N[C@@H](Cc1c[nH]cn1)C(=O)N[C@@H](CCC(=O)O)C(=O)N[C@@H](CC(C)C)C(=O)N[C@@H](C)C(=O)N[C@H](C(=O)N[C@@H](CC(C)C)C(=O)N1CCC[C@H]1C(=O)N[C@@H](CCCNC(=N)N)C(=O)N[C@H](C(=O)N[C@@H](CCC(=O)O)C(=O)N[C@H](C(=O)NCC(=O)N1CCC[C@H]1C(=O)N[C@@H](CCC(=O)O)C(=O)N[C@@H](CO)C(=O)N1CCC[C@H]1C(N)=O)[C@@H](C)O)[C@@H](C)O)[C@@H](C)O) [[N-terminal(C18 diacid), 5H]mimylin] | 6 | 8
{C18 diacid}-EASELSTAALGRLSAELHELATLPRTETGPEHP-NH2 (SMILES CC(C)C[C@H](NC(=O)[C@H](C)NC(=O)[C@H](C)NC(=O)[C@@H](NC(=O)[C@H](CO)NC(=O)[C@H](CC(C)C)NC(=O)[C@H](CCC(=O)O)NC(=O)[C@H](CO)NC(=O)[C@H](C)NC(=O)[C@H](CCC(=O)O)NC(=O)CCCCCCCCCCCCCCCCC(=O)O)[C@@H](C)O)C(=O)NCC(=O)N[C@@H](CCCNC(=N)N)C(=O)N[C@@H](CC(C)C)C(=O)N[C@@H](CO)C(=O)N[C@@H](C)C(=O)N[C@@H](CCC(=O)O)C(=O)N[C@@H](CC(C)C)C(=O)N[C@@H](Cc1c[nH]cn1)C(=O)N[C@@H](CCC(=O)O)C(=O)N[C@@H](CC(C)C)C(=O)N[C@@H](C)C(=O)N[C@H](C(=O)N[C@@H](CC(C)C)C(=O)N1CCC[C@H]1C(=O)N[C@@H](CCCNC(=N)N)C(=O)N[C@H](C(=O)N[C@@H](CCC(=O)O)C(=O)N[C@H](C(=O)NCC(=O)N1CCC[C@H]1C(=O)N[C@@H](CCC(=O)O)C(=O)N[C@@H](Cc1c[nH]cn1)C(=O)N1CCC[C@H]1C(N)=O)[C@@H](C)O)[C@@H](C)O)[C@@H](C)O) [[N-terminal(C18 diacid), 32H]mimylin] | 17 | 20
